Assay results from patent EP4631972A1, “SITE-SPECIFIC COUPLED PEGYLATED INTERLEUKIN-2 MUTANT WITH RECEPTOR AFFINITY PREFERENCE AND USE THEREOF” (priority 2022, dated 2024).

Target: T1, IL-2βγ dual receptor (Homo sapiens, UniProt P14784+P31785)
T1 construct: Uniprot P14784 1Met-551Val was constructed into plasmid pcDNA3.1(+); Uniprot P31785 1Met-551Thr was constructed into plasmid pcDNA3.1/zeo; expressed in transfected cells; host or cells: 293EC18 cells, transient co-transfection with pCMV/JAK3 and PGL4.52/STAT5RE
T1 sequence (P14784 27-551): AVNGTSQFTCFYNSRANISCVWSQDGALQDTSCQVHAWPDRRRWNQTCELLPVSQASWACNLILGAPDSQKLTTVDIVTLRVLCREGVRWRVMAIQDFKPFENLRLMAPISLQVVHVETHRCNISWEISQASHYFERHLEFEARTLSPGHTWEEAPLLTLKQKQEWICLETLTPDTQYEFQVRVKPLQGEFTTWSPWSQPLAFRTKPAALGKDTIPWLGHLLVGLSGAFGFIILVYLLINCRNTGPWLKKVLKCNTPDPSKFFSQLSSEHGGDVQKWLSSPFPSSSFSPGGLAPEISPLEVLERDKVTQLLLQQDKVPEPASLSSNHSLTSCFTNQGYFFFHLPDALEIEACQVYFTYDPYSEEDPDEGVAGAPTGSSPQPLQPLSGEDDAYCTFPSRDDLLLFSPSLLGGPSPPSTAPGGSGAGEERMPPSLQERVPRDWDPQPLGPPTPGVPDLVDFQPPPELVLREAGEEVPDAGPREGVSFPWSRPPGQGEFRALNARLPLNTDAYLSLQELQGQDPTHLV
T1 sequence (P31785 23-369): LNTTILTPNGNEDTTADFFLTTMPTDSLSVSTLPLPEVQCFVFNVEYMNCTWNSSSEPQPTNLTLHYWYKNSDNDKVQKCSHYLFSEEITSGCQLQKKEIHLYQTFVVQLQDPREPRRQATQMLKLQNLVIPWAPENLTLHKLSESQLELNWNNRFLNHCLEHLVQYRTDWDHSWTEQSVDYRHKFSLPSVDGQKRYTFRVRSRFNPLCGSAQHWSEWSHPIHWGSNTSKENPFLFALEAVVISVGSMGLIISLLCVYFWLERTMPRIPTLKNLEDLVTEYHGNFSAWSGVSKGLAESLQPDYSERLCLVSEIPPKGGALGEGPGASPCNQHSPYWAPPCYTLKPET
Test: STAT5 reporter gene assay, activation of IL-2βγ dual receptor in 293EC18/βγ/JAK3/STAT5 cells
Assay type: cell-based
Conditions: for activation effect on the IL-2Rβγ dual receptor compared with control IL-2 N88R: Figure 1, concentration of 65.2 nM
Description: Since the binding of IL-2 to the β and γ subunits of its receptor induces STAT5 phosphorylation, which subsequently leads to dimerization and translocation into the nucleus to promote target gene transcription, this example evaluates the ability of the mutant IL-2 polypeptides to induce signaling through the IL-2 receptor by measuring STAT5 phosphorylation.
Adherent 293EC18 cells were cultured to about 90% confluence using conventional methods. After trypsin digestion, the cells were resuspended in cell culture medium to 4×10^5 cells/ml and 50 µl/well were added to two 96-well cell culture plates. After incubation at 37°C for 48 h, the supernatant was aspirated and fresh culture medium was added. According to the manufacturer's method, four plasmids, pcDNA3.1(+)/CD122 (constructed by Nanjing Novoacine Biotechnology Co., Ltd, Uniprot P14784 1Met-551Val was constructed into plasmid pcDNA3.1(+)), pcDNA3.1/puro/CD132 (constructed by Nanjing Novoacine Biotechnology Co., Ltd, Uniprot P31785 1Met-551Thr was constructed into plasmid pcDNA3.1/zeo), pCMV/JAK3 (Sino Biological), and PGL4.52/STAT5RE (Promega) were transiently transfected into 293EC18 cells using a cationic transfection reagent (ExFect Transfection Reagent, Vazyme). The obtained cells were named 293EC18/βγ/JAK3/STAT5 cells. Alternatively, five plasmids, pcDNA3.1/zeo/CD25 (constructed by Nanjing Novoacine Biotechnology Co., Ltd, Uniprot P01589 1Met-551Ile constructed into plasmid pcDNA3.1/zeo), pcDNA3.1(+)/CD122 (constructed by Nanjing Novoacine Biotechnology Co., Ltd, Uniprot P14784 1Met-551Val constructed into plasmid pcDNA3.1(+)), pcDNA3.1/puro/CD132 (constructed by Nanjing Novoacine Biotechnology Co., Ltd, UniprotP31785 1Met-551Thr constructed into plasmid pcDNA3.1/zeo), pCMV/JAK3 (Sino Biological), and PGL4.52/STAT5RE (Promega) were transiently transferred into 293EC18 cells, and the obtained cells were named 293EC18/αβγ/JAK3/STAT5 cells. The transfected cells were incubated at 37°C and 5% CO2 for another 6 h.
Each IL2 mutant was diluted 4-fold in a gradient manner using PBS buffer, with a total of 11 dilutions and a starting concentration of 65.2 nM. In the above cell culture plates, 50 µl/well of each of the serially diluted IL2 mutant samples was added in duplicate. Then, the cell culture plate was placed in an incubator at 37°C and 5% CO2 for overnight culture. The cell culture plates were kept at room temperature for 20 ± 5 minutes to equilibrate the plates to room temperature. Bio-Lite Luciferase Assay System reagents that have been mixed and equilibrated to room temperature were added to the cell culture plates to be tested at 100 µl/well, placed on a microplate shaker at 450 rpm to mix for 2 minutes, then allowed to stand at room temperature for 3 minutes, and the chemiluminescence value was detected with an enzyme plate reader.
The logarithm of the final concentration of each IL-2 mutant sample was used as the X-axis, and the chemiluminescence detection results were used as the Y-axis for plotting. Data were analyzed using the four-parameter logistic regression model in GraphPad Prism 9. Table 2 EC50 values for the activation of the IL-2αβγ triple receptor by PEG-IL-2 mutants as determined by a reporter gene assay.
According to the method of Example 3, each polyethylene glycol-modified mutant obtained in this example was assessed for the binding preference to the IL2 receptors by a reporter assay. Table 4 EC50 values for the activation of the IL-2αβγ triple receptor by PEG-IL-2 mutants as determined by a reporter gene assay.
Referring to Example 3, the phosphorylation of STAT5 was used to evaluate the ability of the PEG-modified IL-2 mutants having a non-natural amino acid mutation prepared in Example 14 to induce signal transduction via the IL-2 receptor. […]

B1: 80K-1PEG-IL2-N88R-N77C: IL-2 mutant N88R, N77C, conjugation site 77, PEG molecular weight 80kD (conjugate)
chain: APTSSSTKKTQLQLEHLLLDLQMILNGINNYKNPKLTRMLTFKFYMPKKATELKHLQCLEEELKPLEEVLNLAQSKC(PEG 80 kDa)FHLRPRDLISRINVIVLELKGSETTFMCEYADETATIVEFLNRWITFSQSIISTLT
  activation effect on the IL-2Rβγ dual receptor compared with control IL-2 N88R: lower activation effects
Listed as 80k-PEG-IL2-N88R-N77C
  activation effect on the IL-2Rβγ dual receptor compared with control IL-2 N88R: the most significant reduction in activation ability
Figure 2, all concentrations
  activation effect on / affinity to IL-2Rβγ dual receptor compared with control IL-2 N88R: further reduced the affinity to IL-2Rβγ
